Experimental findings from PMC10823521 are described below.

The assay concerns the target H3·H4 heterodimer (human H3.3 and H4) (human) (UniProt P84243). The experiment in a line: high-speed atomic force microscopy; purified nucleosomes, hexasomes and de novo tetrasomes on 601 DNA (200W100), 1.5-3.5 nM, on bare mica, imaged in 10-fold-diluted buffer A at 1-2 fps, room temperature; histone core volume tracked over time; DNA present.

Substance “H3·H4 heterodimer (human H3.3 and H4) (from UniProt P84243 1-136; P62805 1-103) (complex)” displayed an observation time until one H3·H4 dimer was dislodged from a de novo tetrasome of 2 min.
